Results reported in the RNAGym collection of RNA variant scans (doi:10.7554/elife.90254).

B1: OR4K15 (parent)
chain: GUUAACGGUCAUAGGCCAUGGAAACUAGGAGCACCAUUUCGCUGCCAGUGAAGAAAUGAACAAAGAAAAUCUGGGCCAGGCAGGCAUCAAAAGAAAUAGUCUUGCGCUCAACCAGAAAGUCUGUAAUCAUUUUAAGGGUA

Variants of: B1
Assay: self-cleavage, relative activity (ratio to wild type); higher = more cleavage; in vitro, sequencing; the parent is a self-cleaving ribozyme

| Variant | self-cleavage |
| --- | --- |
| GUUAACGGUCAUAGGCCAUGGUAACUAGGAGCACCAUUUCGCUGCCAGUGAAGAAAUGAACAAAGAAAAUCUGGGCCAGGCAGGCAUCAAAAGAAAUAGUCCUGCGCUCAACCAGAAAGUCUGUAAUCAUUUUAAGGGUA [A22U U102C] | 2.02 |
| GUUAACGGUCAUAGGCCAUGGAAACUAGGAGCACCAUCUCGCUGCCAGUGAAGAAAUGAACAAAGAAAAUCUGGGCCAGGCAGGCAUCAAAAGAAAUAGUCUUGCGCUCAACCAGAAAGUCUGUGAUCAUUUUAAGGGUA [U38C A125G] | 0.54 |
| GUUAACGGUCAUAGGCCAUGGUAACUAGGAGCACCAUUUCGCUGCCAGUGAAGAAAUGAACAAAGAAAAUCUGGGCCAGGCAGGCAUCAAAAGAAAUAAUCUUGCGCUCAACCAGAAAGUCUGUAAUCAUUUUAAGGGUA [A22U G99A] | 1.39 |
| GUUAACGGCCAUAGGCCAUGGAAACUAGGAGCACCAUUUCGCUGCCAGUGAAGAAAUGAACAAAGAAAAUCUGGGCCAGGCAGGCAUCAAAAGAAAUAGUCUUGCGCUGAACCAGAAAGUCUGUAAUCAUUUUAAGGGUA [U9C C109G] | 0.04 |
| GUUAACGGUCAUAGGCCAUGGAAACUAGGAGCACCAUUUCGCUGCCAGUAAAGAAAUGAACAAAGAAAGUCUGGGCCAGGCAGGCAUCAAAAGAAAUAGUCUUGCGCUCAACCAGAAAGUCUGUAAUCAUUUUAAGGGUA [G50A A69G] | 1.85 |
| GUUAACGGUCAUAGGCCAUGGAAACUAGGAGCACCAUUUCGCUGCCAGUGAAGAAAUGAACAAAGAAAAUCUGGGCCAGGCAGGCAUCAAAAGAAACAGUCCUGCGCUCAACCAGAAAGUCUGUAAUCAUUUUAAGGGUA [U97C U102C] | 2.38 |
| GUUAACGGUCAUAGGCCAUGGAAACUAGGAGCACCAUAUCGCUGCCAGUGAAGAAAUGAACAAAGAAAAUCUGGGCCAGGCAGGCAUCAAAAGAAAUAGUCUUGCGCUCAACCAGAAAGUCUGUAAUCAUUUUGAGGGUA [U38A A134G] | 1.9 |
| GUUAACGGUCAUAGGCCAUGGAAACUAGGAGCACCAUUUCGCUGCCAGUGAAGAAAUGAACAAAGAAGAUCUGGGCCAGGCAGGCAUCAAAAGAAAUAGUCUUGCGCUCAACCAGAAAGUCUGUAAUCAUUUUAAAGGUA [A68G G136A] | 1.44 |
| GUUAACGGUCGUAGGCCAUGGAAACUAGGAGCACCAUUUCGCUGCCAGUGAAGAAAUGAACAAAGAAAAUCUGGGCCAGGCAGGCAUCAAAAGAAAUAGUCUUGCGCUCAACCAGUAAGUCUGUAAUCAUUUUAAGGGUA [A11G A116U] | 0.12 |
| GUUAACGGUCAUAGGCCAUGGAAUCUAGGAGCACCAUUUCGCUGCCAGUGAAGAAAUGAACAAAGAAAAUCUGGGCCAGGCAGGCAUCAAAAGAAAUAGUCUUGUGCUCAACCAGAAAGUCUGUAAUCAUUUUAAGGGUA [A24U C105U] | 0.17 |
| GUUAACGGUCAUAGGCCAUGGAAACUAGGAGCACCAUUUCGCUGCCAGUGAAGAAACGAACAAAGAAAAUCUGGGCCAGGCAGGCAUCAAAAGAAAUAGUCUUGCUCUCAACCAGAAAGUCUGUAAUCAUUUUAAGGGUA [U57C G106U] | 0.03 |
| GUUGACGGUCAUAGGCCAUGGAAACUAGGAGCACCAUUUCGCUGCCAGUGAAGAAAUGAACAAAGAAAAUCUGGGCCAGGCAGGCAUCAAAAGAAAUAGUCUUGCGCUCAACCAGAAAGUCUGUAAUCGUUUUAAGGGUA [A4G A129G] | 0.78 |
| GUUAACGGUCAUAGGCCAUGGAAACUAGGAGCACCAUUUCGCUGCCAGUGAAGAAAUGAACAUGGAAAAUCUGGGCCAGGCAGGCAUCAAAAGAAAUAGUCUUGCGCUCAACCAGAAAGUCUGUAAUCAUUUUAAGGGUA [A63U A64G] | 0.94 |
| GUUAACGGUCAUAGGCCAUGGAAACUAGGAGCACCAUUUCGCUGCCAGUGAAGAAAUGAACAAAGAAAAUCUGGGCCAGGCAGGCAUCAAAAGAAAUGGUCUUGCGCUCAACCAGAAAGUCUGUAAUCAUUUUAAGGGCA [A98G U139C] | 0.5 |
| GUUAACGGUCAUAGGCCAUGGAAACUAGGAGCACCAUUUCGCUGCCAGUGAAGAAAUGAACAAAGAAAAUCUGGGCCAGGCAGGCAUCAAAAGGAAUAGUCUUGCGCUCAACCAGAGAGUCUGUAAUCAUUUUAAGGGUA [A94G A117G] | 1.92 |
| GUUAACGGUCAAAGGCCAUGGCAACUAGGAGCACCAUUUCGCUGCCAGUGAAGAAAUGAACAAAGAAAAUCUGGGCCAGGCAGGCAUCAAAAGAAAUAGUCUUGCGCUCAACCAGAAAGUCUGUAAUCAUUUUAAGGGUA [U12A A22C] | 1.51 |
| GUUAACGGUCAUAGGCCAUGGAAACUAGGAGCGCCAUUUCGCUGCCAGUGAAGAAGUGAACAAAGAAAAUCUGGGCCAGGCAGGCAUCAAAAGAAAUAGUCUUGCGCUCAACCAGAAAGUCUGUAAUCAUUUUAAGGGUA [A33G A56G] | 0.77 |
| GUUAACGGUCAUAGGCCAUGGAAACUAGGAGCACCGUUUCGCUGCCAGUGAAGAAAUGAACAAAGAAAAUCUGGGCCAGGCAGGCAUCAAAAGAAAUAGUCUCGCGCUCAACCAGAAAGUCUGUAAUCAUUUUAAGGGUA [A36G U103C] | 0.43 |
| GUUAACGGUCAUAGGCCAUGGAAACUAGGAGCACCACUUCGCUGCCAGUGAAGAAAUGAACAAAGAAAAUCUGGGCCAGGCAGGCAUCAAAAGAAAUAGUCUUGCGCUCAACCAGAAAGUCCGUAAUCAUUUUAAGGGUA [U37C U122C] | 1.25 |
| GUUAACGGUCAUAGGCCGUGGAAACUAGGAGCACCAUUUCGCUGCCAGUGAAGAAAUGAACAAAGAAAAUCUGGGCCAGGCAGGCAUCAAAAGAAAUAGUCCUGCGCUCAACCAGAAAGUCUGUAAUCAUUUUAAGGGUA [A18G U102C] | 1.64 |
| GUUAACGGUCAUAGGCCAUUGAAACUAGGAGCACCAUUUCGCUGCCAGUGAAGAAAUGAACAAAGAAGAUCUGGGCCAGGCAGGCAUCAAAAGAAAUAGUCUUGCGCUCAACCAGAAAGUCUGUAAUCAUUUUAAGGGUA [G20U A68G] | 1.59 |

| Variant | self-cleavage |
| --- | --- |
| GUUAUCGGUCAUAGGCCAUGGAAACUAGGAGCACCAUUUCGCUGCCAGUGAAGAAAUGAACAAAGAAAAUCUGGGCCAGGCAGGCAUCAAAAGAAAUAGUCUUGCGCUCAACCAGAAAGUCUGUAGUCAUUUUAAGGGUA [A5U A126G] | 1.07 |
| GUUAACGGUCAUAGGCCAUGGAAACUAGGAGCACCAUUUCGCUGCCAGUGAAGAAAUGAACAAAGAAGAUCUGGGCCAGGCAGGCAUCAAAAGAAAUGGUCUUGCGCUCAACCAGAAAGUCUGUAAUCAUUUUAAGGGUA [A68G A98G] | 0.16 |
| GUUAACGGUCCUAGGCCAUGGAAACUAGGAGCACCAUUUCGCUGCCAGUGAAGAAAUGAACAAAGAAAAUCUGGGCCAGGCAGGCAUCAAGAGAAAUAGUCUUGCGCUCAACCAGAAAGUCUGUAAUCAUUUUAAGGGUA [A11C A91G] | 1.67 |
| GUUAACGGUCAUAGGCCAUGGAAACUAGGAGCACCAUUUCGCUGCCAGUGAAGAAAUGAACAAAGAAAAUCUGGGCCAGGCAGGCAUCAAAAGAAAUAGUCUUGCGCUCACCCAGAAAGUCUGUAAUCAUUUUAAGGGUA [A111C] | 0.01 |
| GUUAACGGUCAUAGGCCAUGGAACCUAGGAGCACCAUUUCGCUGCCAGUGAAGAAAUGAACAAAGAAAAUCUGGGCCGGGCAGGCAUCAAAAGAAAUAGUCUUGCGCUCAACCAGAAAGUCUGUAAUCAUUUUAAGGGUA [A24C A78G] | 0.32 |
| GUUAGCGGUCAUAGGCCAUGGAAACUAGGAGCACCAUUUCGCUGCCAGUGAAGACAUGAACAAAGAAAAUCUGGGCCAGGCAGGCAUCAAAAGAAAUAGUCUUGCGCUCAACCAGAAAGUCUGUAAUCAUUUUAAGGGUA [A5G A55C] | 0.33 |
| GCUAACGGUCAUAGGCCAUGGAAACUAGGAGCACCAUUUCGCUGCCAGUGAUGAAAUGAACAAAGAAAAUCUGGGCCAGGCAGGCAUCAAAAGAAAUAGUCUUGCGCUCAACCAGAAAGUCUGUAAUCAUUUUAAGGGUA [U2C A52U] | 0.38 |
| GUUAACGGUCAUAGGCCAUGGAAACUAGGAGCACCGUUUCACUGCCAGUGAAGAAAUGAACAAAGAAAAUCUGGGCCAGGCAGGCAUCAAAAGAAAUAGUCUUGCGCUCAACCAGAAAGUCUGUAAUCAUUUUAAGGGUA [A36G G41A] | 2.26 |
| GUUAACGGUCAUAGGCCAUGGAAACUAGGAGCACCAUUUCGCUGCCAGUGAAGAAAUGAACAAAGAAAAUCUGGGCCAGGCAGGCAUCAAAAGAAAUAGUCUUGCGCUCAACCAGAAAGUCUGUAAUCAAUUUAAGGGAA [U130A U139A] | 0.89 |
| GUUAACGGUCAUAGGCCAUGGAAACUAGGAGCACCAUUUCGCUGCCAGUGAAGAAAUGAACAAAGAAAAUUUGGGCCAGGCAGGCAUCGAAAGAAAUAGUCUUGCGCUCAACCAGAAAGUCUGUAAUCAUUUUAAGGGUA [C71U A89G] | 0.52 |
| GUUAACGGUCAUAGGCCAUGGAAACUAGGAGCACCAUUUCGCUGCCAGUGAAGAAAUGAACAUAGAAAAUCUGGGCCAGGCGGGCAUCAAAAGAAAUAGUCUUGCGCUCAACCAGAAAGUCUGUAAUCAUUUUAAGGGUA [A63U A82G] | 0.36 |
| GUUAAUGGUCAUAGGCCAUGGAAACUAGGAGCACCAUUUCGCUGCCAGUGAAGAAAUGAGCAAAGAAAAUCUGGGCCAGGCAGGCAUCAAAAGAAAUAGUCUUGCGCUCAACCAGAAAGUCUGUAAUCAUUUUAAGGGUA [C6U A60G] | 0.8 |
| GUUAACGGUCAUAGGCCAUGGAAACUAGGAGCACCAUUUCGCUGCCAGUGAAGAAAUGAACAAAGAAAAUCUGGGCCAGGCAGGCAACAAAAGUAAUAGUCUUGCGCUCAACCAGAAAGUCUGUAAUCAUUUUAAGGGUA [U87A A94U] | 1.52 |
| GUUAACGGUCAUAGGCCAUGGAAACUAGGAGCACCAUUUCGCUGCCAGUGAAGAAAUGAACAAAGAAAAUCUGGGCCAGGCAGGCAUCAAAAGAAAUAGUCUUGCGCUCAACCAGAAAGUCUGUAAUCACUUUAGGGGUA [U130C A135G] | 1.89 |
| GUUUACGGUCAUAGGCCAUGGAAACUAGGAGCACCUUUUCGCUGCCAGUGAAGAAAUGAACAAAGAAAAUCUGGGCCAGGCAGGCAUCAAAAGAAAUAGUCUUGCGCUCAACCAGAAAGUCUGUAAUCAUUUUAAGGGUA [A4U A36U] | 1.62 |
| GUUAACGGUCAUAGGCCAUGGAAACUAGGAGCACCAUUUCGCUGCCAGUGAAGAAAUGAACAAAGAAAAUCUGGGCCAGACAGGCAUCAAAAGAAAUAGUCUUGCGCACAACCAGAAAGUCUGUAAUCAUUUUAAGGGUA [G80A U108A] | 0.02 |
| GUUAACGGUCAUAGGCCAUGGAAACUAGGAGCACCAUUUCGCUGCCAGUGAAGAAAUGAACAAAGAAAAUCUGGGCCAGGCAGGCAUCAAAAGAAAUAGUCUUGCGCUCAACCAGAACGUCAGUAAUCAUUUUAAGGGUA [A118C U122A] | 1.12 |
| GUUAACGGUCAUAGGCCAUGGAAACUAGGAGCACCAUUUCGCUGCCAGUGAAGAAAUGAACAAAGAAAAUCUGGGCCAGGCAGGCAUCAAAAGAAAUAGUCUUGCGCUUAACCAGAAAGUCUGUAAUCAUUUUAGGGGUA [C109U A135G] | 0.38 |
| GUUAACGGUCAUAGGCCAUGGAAACUAGGAGCACCAUUUCGCUGCCAGUGAAGAAAUGAACAAAGAAAAUCUGGGCCAAGCAGGCAUCAAAAGAAAUAGUCUUGCGCUCAACCAGAAAGACUGUAAUCAUUUUAAGGGUA [G79A U120A] | 0.13 |
| GUUAACGGUCAUAGGCCAUGGAAACUAGGAGCACCAUUUCGCUGCCAGUGAAGAAAUGAACAAAGAAAAUCUGGGCCUGGCAGGCAUCAAAAGAAAUAGUCUUGCGCUCAACCAGAAGGUCUGUAAUCAUUUUAAGGGUA [A78U A118G] | 0.49 |
